In patent US20240307564A1 (SUZHOU TRANSCENTA THERAPEUTICS, published 2024):

Assays:
human CLDN18.2 [1] = biological target: human CLDN18.2 (human); assay: cell-based or functional assay
human CLDN18.2 [2] = biological target: T1, human CLDN18.2 (human); assay: KinExA on gastric cell lines
T1 construct: On HEK293-CLDN18.2 and MKN45-CLDN18.2 transfected cells and on the gastric cell lines NUGC4 and KATOIII (endogenous); also called Claudin18.2; claudin 18 splice variant 2

B1: 18B10-HaLa (antibody, human IgG1, kappa, V domains shown)
VH: QVQLVQSGAEVKKPGASVKVSCKASGYTFTGYNMNWVRQAPGQGLEWMGNIDPYYGGTSYNQKFKGRVTMTIDKSTSTVYMELSSLRSEDTAVYYCARMYHGNAFDYWGQGTTVTVSS
VL: DIVMTQSPDSLAVSLGERATINCKSSQSLLNSGNLKNYLTWYQQKPGQPPKLLIYWASTRKSGVPDRFSGSGSGTDFTLTISSLQAEDVAVYYCQNDYSYPLTFGGGTKVEIKR
notes: humanized; variable regions fused with human IgG1 and human kappa constant regions; also called humanized 18B10 HaLa
Human CLDN18.2 [1]
  ADCC EC50 on NUGC4 cells: ~0.59 µg/mL
  ADCC reporter EC50: 0.05 µg/mL
  CDC activity: > 20 fold
Human CLDN18.2 [2]
  fold higher affinity than IMAB362: > 8 fold
